Assay results as given in patent US20220073596A1 (CITRYLL B V, published 2022).
Where no end group is shown, it is not given here. [ ]: non-standard residue; d: D form. Cit = NC(=O)NCCC[C@H](N)C(=O)O

Assays:
[1] = target: T1, Arginine containing control peptide of Histone H2A N-terminus (SEQ ID NO: 3), SGRGKQGGKARA (free N-terminal NH2 group); experiment: peptide ELISA
T1 construct: Control peptide with arginine in place of citrulline
T1 peptide: SGRGKQGGKARA

[2] = target: T2, N-terminal citrullinated peptide of Histone H2A (SEQ ID NO: 1), SGCitGKQGGKARA (also: biotin, place not given here); experiment: peptide ELISA, biotin peptide on neutravidin
T2 peptide: SG[Cit]GKQGGKARA
Experimental: Optical density was measured by 450 nm and is a measure for the affinity of the antibodies used.

binding result [1]: no binding
binding result [2]: binds
B1: Mouse monoclonal antibody Rmmab22.101 (antibody, V domains shown)
VH: RIQLVQSGPELKKPGEAVKISCKASGYTFTNYGMHWMKQTPGKDFRWMGWINTYSGEATYVDDFKGRFAFSLGTSASTAYLQINNLKNDDTATYFCLRGYTYQSFDEGGDYWGQGTALTVSS
VL: not shown
notes: Mouse monoclonal from hybridoma DSMZ ACC 3031; also called MQ22.101
